Data from IntAct's records for PubMed 11752373.

B1: Cryptochrome-1 (Arabidopsis thaliana (Mouse-ear cress)), Q43125 (parent)
chain: MSGSVSGCGSGGCSIVWFRRDLRVEDNPALAAAVRAGPVIALFVWAPEEEGHYHPGRVSRWWLKNSLAQLDSSLRSLGTCLITKRSTDSVASLLDVVKSTGASQIFFNHLYDPLSLVRDHRAKDVLTAQGIAVRSFNADLLYEPWEVTDELGRPFSMFAAFWERCLSMPYDPESPLLPPKKIISGDVSKCVADPLVFEDDSEKGSNALLARAWSPGWSNGDKALTTFINGPLLEYSKNRRKADSATTSFLSPHLHFGEVSVRKVFHLVRIKQVAWANEGNEAGEESVNLFLKSIGLREYSRYISFNHPYSHERPLLGHLKFFPWAVDENYFKAWRQGRTGYPLVDAGMRELWATGWLHDRIRVVVSSFFVKVLQLPWRWGMKYFWDTLLDADLESDALGWQYITGTLPDSREFDRIDNPQFEGYKFDPNGEYVRRWLPELSRLPTDWIHHPWNAPESVLQAAGIELGSNYPLPIVGLDEAKARLHEALSQMWQLEAASRAAIENGSEEGLGDSAEVEEAPIEFPRDITMEETEPTRLNPNRRYEDQMVPSITSSLIRPEEDEESSLNLRNSVGDSRAEVPRNMVNTNQAQQRRAEPASNQVTAMIPEFNIRIVAESTEDSTAESSSSGRRERSGGIVPEWSPGYSEQFPSEENGIGGGSTTSSYLQNHHEILNWRRLSQTG
partner: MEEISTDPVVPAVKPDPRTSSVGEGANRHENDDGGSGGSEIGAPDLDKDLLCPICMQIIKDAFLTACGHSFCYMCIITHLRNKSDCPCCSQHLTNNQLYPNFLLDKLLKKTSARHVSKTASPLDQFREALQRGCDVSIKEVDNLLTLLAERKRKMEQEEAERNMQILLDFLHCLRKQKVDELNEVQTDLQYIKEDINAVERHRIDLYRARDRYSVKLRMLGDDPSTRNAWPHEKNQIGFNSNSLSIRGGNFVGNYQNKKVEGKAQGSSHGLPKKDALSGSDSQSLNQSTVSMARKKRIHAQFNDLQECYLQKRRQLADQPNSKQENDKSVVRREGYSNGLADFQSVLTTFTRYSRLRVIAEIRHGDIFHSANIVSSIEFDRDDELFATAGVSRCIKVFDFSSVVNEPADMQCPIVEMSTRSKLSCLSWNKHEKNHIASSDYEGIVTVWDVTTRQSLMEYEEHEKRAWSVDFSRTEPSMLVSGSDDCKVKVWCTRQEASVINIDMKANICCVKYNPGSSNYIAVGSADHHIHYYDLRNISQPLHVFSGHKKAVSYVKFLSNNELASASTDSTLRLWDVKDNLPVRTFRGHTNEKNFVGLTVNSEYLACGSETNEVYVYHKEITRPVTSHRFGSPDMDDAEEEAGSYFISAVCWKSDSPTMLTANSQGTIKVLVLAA
B2: E3 ubiquitin-protein ligase COP1 (Arabidopsis thaliana (Mouse-ear cress)), P43254 (parent)
chain: B1 partner

Variants of: B1
Conditions: with cop1_arath COP1, P43254

| Variant | effect of a mutation on the interaction |
| --- | --- |
| E515K | decreasing interaction |
| R576K | decreasing interaction |
| R611K | decreasing interaction |

Second part, the variant after the results:

| effect of a mutation on the interaction | Variant |
| --- | --- |
| decreasing interaction | E531K |
| decreasing interaction | P549L |
| disrupting interaction | E559K |
| decreasing interaction | R581K |

Variants of: B2
Conditions: with cry1_arath CRY1, Q43125

| Variant | effect of a mutation on the interaction |
| --- | --- |
| K422E | decreasing interaction |
| R465E | decreasing interaction |
| G524E | decreasing interaction |
| E592R | decreasing interaction |

The remaining lines, values ahead:

| effect of a mutation on the interaction | Variant |
| --- | --- |
| decreasing interaction | W467A |
| decreasing interaction | K550E |
